The target of this experiment is porcine pancreatic elastase (porcine) (UniProt P00772).
Sequence of UniProt P00772 (P00772 27-266): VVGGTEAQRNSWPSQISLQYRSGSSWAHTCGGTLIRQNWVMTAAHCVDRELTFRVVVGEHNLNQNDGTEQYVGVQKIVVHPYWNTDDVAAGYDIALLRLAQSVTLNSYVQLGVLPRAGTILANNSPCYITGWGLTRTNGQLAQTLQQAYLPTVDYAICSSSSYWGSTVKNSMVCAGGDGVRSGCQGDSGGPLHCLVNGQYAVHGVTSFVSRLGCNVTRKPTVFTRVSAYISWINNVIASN

In turn, “Alpha-1-antitrypsin (standard AAT, purified from human plasma) (from UniProt P01009 25-418) (natural protein)” yielded an elastase inhibition % (hydrolysis of N-succinyl-tri-l-alanine-4-nitroanilide read at 410 nm), AAT from 7.5 to 120 µg/mL of 97%.

The values are drawn from article PMC6770759.
